Test results reported in US8440629B2.
Where two headings read alike, the source gives them in different places. Positions of bridges follow the written chain, without caps; N, C: chain ends. No end group written: not given here.

Key:
[1] = target: recombinant human LRP1 ligand binding cluster II (human); test: competition ELISA on immobilised LRP1 cluster II; competitor ligand RAP d3 (2 nM)
[2] = target: recombinant human LRP1 ligand binding cluster II (human); test: competition ELISA, inhibitor pre-incubated with immobilised LRP1 cluster II before washing; competitor ligand RAP d3
[3] = target: recombinant human LRP1 ligand binding cluster II (human); test: solid-phase binding assay, immobilised receptor
[4] = target: MAT CR23 (human); test: solid-phase binding assay (FIG. 9); target not given, MatRAP1 was selected on MAT CR23
MAT CR23 (human), sequence (Q9Y5Y6 whole entry): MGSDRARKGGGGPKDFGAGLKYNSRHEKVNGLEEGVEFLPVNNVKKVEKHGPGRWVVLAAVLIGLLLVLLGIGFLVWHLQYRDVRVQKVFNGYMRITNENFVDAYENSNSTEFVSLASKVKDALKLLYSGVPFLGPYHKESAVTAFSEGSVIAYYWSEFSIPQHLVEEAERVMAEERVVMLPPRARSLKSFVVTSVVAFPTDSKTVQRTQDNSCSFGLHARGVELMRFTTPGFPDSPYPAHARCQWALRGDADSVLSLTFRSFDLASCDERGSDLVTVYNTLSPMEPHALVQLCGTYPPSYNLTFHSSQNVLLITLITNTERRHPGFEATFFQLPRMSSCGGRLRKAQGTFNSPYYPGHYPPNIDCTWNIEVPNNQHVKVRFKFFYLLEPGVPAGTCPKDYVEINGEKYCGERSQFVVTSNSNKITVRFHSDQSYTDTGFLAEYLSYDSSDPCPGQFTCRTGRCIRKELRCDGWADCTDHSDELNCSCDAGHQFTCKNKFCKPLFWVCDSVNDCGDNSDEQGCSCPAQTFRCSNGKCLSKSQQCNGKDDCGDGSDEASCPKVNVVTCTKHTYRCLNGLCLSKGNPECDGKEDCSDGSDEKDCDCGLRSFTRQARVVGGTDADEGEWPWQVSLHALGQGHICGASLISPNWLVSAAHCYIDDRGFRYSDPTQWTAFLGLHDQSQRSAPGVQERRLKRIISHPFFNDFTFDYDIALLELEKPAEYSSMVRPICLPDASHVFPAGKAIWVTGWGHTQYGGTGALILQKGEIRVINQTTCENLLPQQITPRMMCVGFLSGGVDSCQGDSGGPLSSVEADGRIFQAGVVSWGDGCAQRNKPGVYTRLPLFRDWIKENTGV

[5] = target: recombinant human LRP1 ligand binding cluster II (human); test: solid-phase binding assay, immobilised receptor, streptavidin-HRP detection, EDTA-corrected
[6] = target: 8D6 CR12 (human); test: solid-phase binding assay (FIG. 10)
[7] = target: MAT CR23 (human); test: solid-phase binding assay, immobilised CR protein, anti-RAP detection
[8] = target: LRP2 CR89 (human) (UniProt P98164); test: as above
[9] = target: LRP2 CR34-36 (human) (UniProt P98164); test: as above
[10] = target: LRP2 CR3536 (human) (UniProt P98164); test: as above
[11] = target: LRP1 CR3-5 (human); test: as above
[12] = target: LRP1 CR3-5 (human); test: as above; remark: listed apart in the source
[13] = target: LRP2 CR89 (human) (UniProt P98164); test: as above; remark: listed apart in the source
[14] = target: LRP2 CR89 R1088D (human) (UniProt P98164); test: solid-phase binding assay, immobilised mutant CR protein
[15] = target: LRP1 CR3-5 (human); test: phage panning of a RAP library randomised at 256 and 270 on immobilised LRP1 CR3-5

B1: Human RAP (ligand)
chain: YSREKNQPKPSPKRESGEEFRMEKLNQLWEKAQRLHLPPVRLAELHADLKIQERDELAWKKLKLDGLDEDGEKEARLIRNLNVILAKYGLDGKKDARQVTSNSLSGTQEDGLDDPRLEKLWHKAKTSGKFSGEELDKLWREFLHHKEKVHEYNVLLETLSRTEEIHENVISPSDLSDIKGSVLHSRHTELKEKLRSINQGLDRLRRVSHQGYSTEAEFEEPRVIDLWDLAQSANLTDKELEAFREELKHFEAKIEKHNHYQKQLEIAHEKLRHAESVGDGERVSRSREKHALLEGRTKELGYTVKKHLQDLSGRISRARHNEL
Work on B1 yielded an EC50 [1] of 0.5 nM, a fold better EC50 than monomeric mRAPc peptide [1] of 64 fold and an EC50 [2] of 0.3 nM.

B2: mRAP-14c (peptide)
peptide: CEAKIEKHNHYQKQLEIAHEKLRHAESVGDGERVSRSREKHALLEGRTKELGYTVKKHGC
modifications: disulfide 1-60
B2 gave a Kd [3] of 21 nM.

B3: MatRAP1 N-42 (ligand)
chain: FREELKHFGAKIERHNHYQKQLEIAHEWLRHAESVGDGERVSRSREKHALLEGRTKELGYTVKKHLQDLSGRISRAR
B3 was tested, and the fold increase in affinity over the full-length d3 variant [4] was 3 fold.

B4: MatRAP1 N-42 without the C-terminal linker and affinity tag (ligand)
chain: FREELKHFGAKIERHNHYQKQLEIAHEWLRHAESVGDGERVSRSREKHALLEGRTKELGYTVKKHLQDLSGRISRAR
With B4 the fold increase in binding affinity over MatRAP1 N-42 [4] was 2 fold and the fold increase in binding affinity over full-length MatRAP1 d3 [4] was 6 fold.

B5: Heptide (peptide)
peptide: CGKHFEAKIEKHNHYQKQLEIAHEKLRHAESVGDAERVSRSREKHALLEGRTKELGYTVKKHLQDACG
modifications: disulfide 1-67
B5 was tested, and the Kd [3] was 3.5 nM.

B6: tag-free RAP d3 peptide linked to maleimide-PEO2-biotin (ligand)
chain: LDRLRRVSHQGYSTEAEFEEPRVIDLWDLAQSANLTDKELEAFREELKHFEAKIEKHNHYQKQLEIAHEKLRHAESVGDGERVSRSREKHALLEGRTKELGYTVKKHLQDLSGRISRARC
modifications: maleimide-PEO2-biotin on the unique C-terminal cysteine
In the case of B6, the Kd [5] is reported as 8 nM.

B7: mRAP-8c (peptide)
peptide: CGKHFEAKIEKHNHYQKQLEIAHEKLRHAESVGDGERVSRSREKHALLEGRTKELGYTVKKHLQDGC
modifications: disulfide 1-67
In the case of B7, the Kd [3] is reported as 4 to 6 nM.

B8: MatRAP1 truncated variant, amino acids 243-313 (ligand)
chain: FREELKHFGAKIERHNHYQKQLEIAHEWLRHAESVGDGERVSRSREKHALLEGRTKELGYTVKKHLQDLSG
In the case of B8, the fold increase in binding affinity over MatRAP1 N-42 [4] is reported as 4 fold and the fold increase in binding affinity over full-length MatRAP1 d3 [4] is reported as 12 fold.

B9: truncated 320RAP1, amino acids 243-313 (ligand)
chain: FREELKHFEAKIESHNHYQKQLEIAHESMRHAESVGYGERMSRSREKHALLEGRTKELGYTVTMHLQDLSG
B9 gave a fold improvement in affinity over the full-length variant [6] of 3.5 fold.

B10: RAP d3 (ligand)
chain: LDRLRRVSHQGYSTEAEFEEPRVIDLWDLAQSANLTDKELEAFREELKHFEAKIEKHNHYQKQLEIAHEKLRHAESVGDGERVSRSREKHALLEGRTKELGYTVKKHLQDLSGRISRAR
B10 showed a binding as percent of that for LRP1 CR3-5 [7] of less than 5%, a Kd [8] greater than 300 nM and a binding as percent of that for LRP1 CR3-5 [9] of less than 5%. It also gave a binding as percent of that for LRP1 CR3-5 [10] of less than 5%, a Kd [11] of 11 nM and a Kd [12] of 16 nM.

B11: MegaRAP1 d3 E270K (ligand)
chain: LDRLRRVSHQGYTTEAKFEEPRVIDLWDLAQSANLTDKELEAFREELKYFKAKIEAHNHYQKQLEIAHEKLRHAESVGDGERVSRSREKHALLEGRTKELGYTVKKHLQDLSGRISRAR
Work on B11 yielded a Kd [13] of 8 nM and a Kd [12] of 142 nM.

B12: RAP d3 E251K, K256A, K270E (ligand)
chain: LDRLRRVSHQGYSTEAEFEEPRVIDLWDLAQSANLTDKELEAFREELKHFKAKIEAHNHYQKQLEIAHEELRHAESVGDGERVSRSREKHALLEGRTKELGYTVKKHLQDLSGRISRAR
B12 gave a Kd [8] of 114 nM.

B13: MegaRAP1 d3 double revertant K251E, E270K (ligand)
chain: LDRLRRVSHQGYTTEAKFEEPRVIDLWDLAQSANLTDKELEAFREELKYFEAKIEAHNHYQKQLEIAHEKLRHAESVGDGERVSRSREKHALLEGRTKELGYTVKKHLQDLSGRISRAR
B13 gave a fold difference in affinity against the single-site E270K revertant [13] of 20 fold.

B14: MegaRAP1 d3 (ligand)
chain: LDRLRRVSHQGYTTEAKFEEPRVIDLWDLAQSANLTDKELEAFREELKYFKAKIEAHNHYQKQLEIAHEELRHAESVGDGERVSRSREKHALLEGRTKELGYTVKKHLQDLSGRISRAR
For B14, the fold loss of affinity relative to LRP2 CR89 [14] was 2 fold and the Kd [13] was 38 nM.

B15: MegaRAP1 d3 double revertant A256K, E270K (ligand)
chain: LDRLRRVSHQGYTTEAKFEEPRVIDLWDLAQSANLTDKELEAFREELKYFKAKIEKHNHYQKQLEIAHEKLRHAESVGDGERVSRSREKHALLEGRTKELGYTVKKHLQDLSGRISRAR
Binder B15 has a fold loss of affinity against the E270K single-site revertant [13] of 2 fold and a fold improvement in affinity against the E270K single-site revertant [12] of 30 fold.

B16: wild-type RAP displayed on M13 phage (ligand)
chain: YSREKNQPKPSPKRESGEEFRMEKLNQLWEKAQRLHLPPVRLAELHADLKIQERDELAWKKLKLDGLDEDGEKEARLIRNLNVILAKYGLDGKKDARQVTSNSLSGTQEDGLDDPRLEKLWHKAKTSGKFSGEELDKLWREFLHHKEKVHEYNVLLETLSRTEEIHENVISPSDLSDIKGSVLHSRHTELKEKLRSINQGLDRLRRVSHQGYSTEAEFEEPRVIDLWDLAQSANLTDKELEAFREELKHFEAKIEKHNHYQKQLEIAHEKLRHAESVGDGERVSRSREKHALLEGRTKELGYTVKKHLQDLSGRISRARAEAETG
B16 was tested, and the fold enrichment after one round of panning [15] was 7 fold.
